Ends that are not written are not given here.
T1: recombinant Sis1 (S. cerevisiae, UniProt P25294 1-352)
T1 construct: Sis1, yeast Hsp40 co-chaperone; also called Hsp40 co-chaperone Sis1; source: recombinantly expressed and purified
T1 sequence (looked up): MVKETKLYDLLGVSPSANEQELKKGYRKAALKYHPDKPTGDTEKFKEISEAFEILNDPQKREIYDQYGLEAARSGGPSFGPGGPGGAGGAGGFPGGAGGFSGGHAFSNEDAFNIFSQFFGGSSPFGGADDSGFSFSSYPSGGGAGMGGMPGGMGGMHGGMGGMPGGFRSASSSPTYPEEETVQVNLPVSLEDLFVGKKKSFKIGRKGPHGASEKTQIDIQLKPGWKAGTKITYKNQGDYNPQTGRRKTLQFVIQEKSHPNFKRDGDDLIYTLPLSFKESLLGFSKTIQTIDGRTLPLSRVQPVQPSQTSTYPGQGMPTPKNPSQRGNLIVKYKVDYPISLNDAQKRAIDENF

T2: GST-Tom20(35-183) (S. cerevisiae, UniProt P35180 35-183)
T2 construct: also called cytosolic domain of Tom20; source: expressed and purified as described earlier (Papić et al., 2013); not shown: GST, N-terminal, kept
T2 sequence (looked up): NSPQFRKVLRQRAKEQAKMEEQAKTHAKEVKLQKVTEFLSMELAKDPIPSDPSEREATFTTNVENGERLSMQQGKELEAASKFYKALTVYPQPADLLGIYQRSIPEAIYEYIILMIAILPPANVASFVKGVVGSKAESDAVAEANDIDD

B1: TAMRA-labeled Mcr1 peptide, residues 1-39 (peptide, UniProt P36060 1-39, looked up)
peptide: MFSRLSRSHSKALPIALGTVAIAAATAFYFANRNQHSFV
modifications: also: TAMRA label, position not given here
notes: Mcr1, residues 1-39, contain the transmembrane segment; synthesis as in Jores et al., 2016; also called Mcr1(TMS); Mcr1-TMS peptide; source: synthetic peptide
B2: GST-Tom70(46-617) (domain or fragment, S. cerevisiae, UniProt P07213 46-617, looked up)
chain: KDEKKDTKDSQKETEGAKKSTAPSNPPIYPVSSNGEPDFSNKANFTAEEKDKYALALKDKGNQFFRNKKYDDAIKYYNWALELKEDPVFYSNLSACYVSVGDLKKVVEMSTKALELKPDYSKVLLRRASANEGLGKFADAMFDLSVLSLNGDFNDASIEPMLERNLNKQAMSKLKEKFGDIDTATATPTELSTQPAKERKDKQENLPSVTSMASFFGIFKPELTFANYDESNEADKELMNGLSNLYKRSPESYDKADESFTKAARLFEEQLDKNNEDEKLKEKLAISLEHTGIFKFLKNDPLGAHEDIKKAIELFPRVNSYIYMALIMADRNDSTEYYNYFDKALKLDSNNSSVYYHRGQMNFILQNYDQAGKDFDKAKELDPENIFPYIQLACLAYRENKFDDCETLFSEAKRKFPEAPEVPNFFAEILTDKNDFDKALKQYDLAIELENKLDGIYVGIAPLVGKATLLTRNPTVENFIEATNLLEKASKLDPRSEQAKIGLAQMKLQQEDIDEAITLFEESADLARTMEEKLQAITFAEAAKVQQRIRSDPVLAKKIQETLAKLREQGLM
notes: Tom70, cytosolic domain, residues 46-617; also called cytosolic domain of Tom70; source: expressed and purified as described earlier (Papić et al., 2013); not shown: GST, N-terminal, kept
B3: TAMRA-labeled Tom70 peptide, residues 1-32 (peptide, UniProt P07213 1-32, looked up)
peptide: MKSFITRNKTAILATVAATGTAIGAYYYYNQL
modifications: also: TAMRA label, position not given here
notes: Tom70, residues 1-32, contain the transmembrane segment; synthesis as in Jores et al., 2016; also called Tom70(TMS); TMS-labelled peptide of Tom70; source: synthetic peptide
B4: Mcr1-3HA (full length) (natural protein, S. cerevisiae, UniProt P36060 1-302, looked up)
chain: MFSRLSRSHSKALPIALGTVAIAAATAFYFANRNQHSFVFNESNKVFKGDDKWIDLPISKIEEESHDTRRFTFKLPTEDSEMGLVLASALFAKFVTPKGSNVVRPYTPVSDLSQKGHFQLVVKHYEGGKMTSHLFGLKPNDTVSFKGPIMKWKWQPNQFKSITLLGAGTGINPLYQLAHHIVENPNDKTKVNLLYGNKTPQDILLRKELDALKEKYPDKFNVTYFVDDKQDDQDFDGEISFISKDFIQEHVPGPKESTHLFVCGPPPFMNAYSGEKKSPKDQGELIGILNNLGYSKDQVFKF
notes: Mcr1, S. cerevisiae, signal-anchored mitochondrial outer membrane protein (Mcr1mom is its outer membrane isoform); also called Mcr1-FL; yk-Mcr1-3HA; source: in vitro translated in yeast extract; not shown: 3HA, C-terminal, kept

Experiments:
GST-Tom70(46-617) = target: B2; test: fluorescence polarisation; fluorescence anisotropy, 2 µM TAMRA-labeled peptide, 30 °C; single additions of 10 µM Ssa1, 30 µM Sis1, 10 µM GST-Tom70, GST, BSA or 1 mM ATP alone or in the indicated order; conditions: both partners purified
recombinant Ssa1 = target: T3, recombinant Ssa1 (S. cerevisiae, UniProt P10591 1-642); test: fluorescence polarisation; fluorescence anisotropy titration, 2 µM TAMRA-labeled peptide with increasing concentrations of Ssa1 or Sis1, 30 °C; Kd from hyperbolic regression of the difference in anisotropy; conditions: both partners purified
T3 construct: Ssa1, yeast cytosolic Hsp70 chaperone; also called Hsp70 Ssa1; source: recombinantly expressed and purified
T3 sequence (P10591 whole entry): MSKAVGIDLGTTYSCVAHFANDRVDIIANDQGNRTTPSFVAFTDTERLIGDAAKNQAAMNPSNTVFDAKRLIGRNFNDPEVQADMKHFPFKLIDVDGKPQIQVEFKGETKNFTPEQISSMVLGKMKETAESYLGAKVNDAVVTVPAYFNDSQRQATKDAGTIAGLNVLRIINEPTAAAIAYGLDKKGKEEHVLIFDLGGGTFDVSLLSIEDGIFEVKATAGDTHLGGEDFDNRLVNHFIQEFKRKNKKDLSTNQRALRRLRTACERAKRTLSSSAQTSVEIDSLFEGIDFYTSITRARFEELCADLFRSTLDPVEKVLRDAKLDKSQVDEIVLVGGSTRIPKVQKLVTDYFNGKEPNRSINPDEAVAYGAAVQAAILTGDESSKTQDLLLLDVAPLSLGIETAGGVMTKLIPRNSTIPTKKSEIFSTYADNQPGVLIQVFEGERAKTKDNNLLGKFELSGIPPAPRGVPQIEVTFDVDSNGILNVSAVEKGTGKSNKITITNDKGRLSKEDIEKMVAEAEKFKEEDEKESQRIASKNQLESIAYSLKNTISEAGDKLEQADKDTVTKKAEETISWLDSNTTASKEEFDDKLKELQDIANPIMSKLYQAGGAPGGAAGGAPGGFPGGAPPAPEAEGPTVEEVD

recombinant Sis1 = target: T1, recombinant Sis1; test: as above; conditions: both partners purified
Ssa1-Mcr1(TMS) complex = target: T4, Ssa1-Mcr1(TMS) complex (S. cerevisiae, UniProt P10591 1-642; P36060 1-39, Tetramethylrhodamine (TAMRA), position not stated); test: fluorescence polarisation; fluorescence anisotropy, 2 µM TAMRA-labeled peptide, 30 °C; single additions of 10 µM Ssa1, 30 µM Sis1, 10 µM GST-Tom70, GST, BSA or 1 mM ATP alone or in the indicated order; conditions: both partners purified
T4 construct: Ssa1, as m37; Mcr1 residues 1-39, as m36; also called substrate-chaperone complex; Ssa1/substrate complex; source: formed beforehand by adding 10 µM recombinant Ssa1 to 2 µM TAMRA-labeled Mcr1 peptide
T4 sequence (P10591 whole entry, the tested form may be a part, one chain of several): as the sequence (P10591 whole entry) above

GST-Tom20(35-183) = target: T2, GST-Tom20(35-183); test: pull-down; purified GST, GST-Tom20 or GST-Tom70 on glutathione sepharose beads blocked with 5% BSA, mixed with cleared in vitro translation reactions (yeast extract) of HA-tagged proteins; ATP added every 30 min; 20 mM Hepes, 100 mM NaCl, 1 mM MgCl2, pH 7.25; anti-HA blot; conditions: one partner purified

binding result (GST-Tom70(46-617))	Kd (recombinant Ssa1) [nM]	Kd (recombinant Sis1) [µM]	binding result (Ssa1-Mcr1(TMS) complex)	fold binding to GST-Tom20 relative to GST-Tom70 (after normalising to GST) (GST-Tom20(35-183)) [fold]	Binder
binds	3270	25.8			B1
			binds		B2
	2420	18.3			B3
				4	B4

From paper PMC9355564, “A network of cytosolic (co)chaperones promotes the biogenesis of mitochondrial signal-anchored outer membrane proteins” (eLife, 2022)
